Kd data for 1 substance are collected here from paper doi:10.1101/2020.06.22.166033.

This experiment has as its target biotinylated SARS-CoV-2 S2P probe (SARS-CoV-2-S2P-AVI) (SARS-CoV-2 | T4 phage) (UniProt P0DTC2). Description: SPR.

CR3022 Fab had an equilibrium dissociation constant (Kd) of 91.4 nM. In other words, the double-digit nanomolar range.
